{"source": "patent US20200181257A1", "about": "(Chugai, published 2020)", "binders": {"B1": {"name": "TS16 (antibody)", "heavy": "QVQLQESGPGLVRPSQTLSLTCTVSGYSITSDHAWSWVRQPPGRGLEWIGYISYSGITTYNPSLKSRVTMLRDTSKNQFSLRLSSVTAADTAVYYCARSLARTTAMDYWGQGSLVTVSSASTKGPSVFPLAPSSKSTSGGTAALGCLVKDYFPEPVTVSWNSGALTSGVHTFPAVLQSSGLYSLSSVVTVPSSSLGTQTYICNVNHKPSNTKVDKKVEPKSCDKTHTCPPCPAPELLGGPSVFLFPPKPKDTLMISRTPEVTCVVVDVSHEDPEVKFNWYVDGVEVHNAKTKPREEMGNGTYRVVSVLTVLHQDWLNGKEYKCKVSNKALPAPIEKTISKAKGQPREPQVYTLPPSRDELTKNQVSLTCLVKGFYPSDIAVEWESNGQPENNYKTTPPVLDSDGSFFLYSKLTVDKSRWQQGNVFSCSVMHEALHNHYTQKSLSLSP", "light": "not shown", "notes": "anti-IL6R IgG1, G1d with Q295M/Y296G/S298G (EU)"}}, "test_in_all_cases": "SPR, antibody captured on Protein A", "key": {"[1]": {"biological_target": "T1, human Fcγ receptor hFcgRIa (human, UniProt P12314 16-292, limits assumed)", "T1 construct": "Construct used in the SPR assay is not described; also called hFcγRIa; FcγI", "T1 sequence (P12314 16-292 limits assumed)": "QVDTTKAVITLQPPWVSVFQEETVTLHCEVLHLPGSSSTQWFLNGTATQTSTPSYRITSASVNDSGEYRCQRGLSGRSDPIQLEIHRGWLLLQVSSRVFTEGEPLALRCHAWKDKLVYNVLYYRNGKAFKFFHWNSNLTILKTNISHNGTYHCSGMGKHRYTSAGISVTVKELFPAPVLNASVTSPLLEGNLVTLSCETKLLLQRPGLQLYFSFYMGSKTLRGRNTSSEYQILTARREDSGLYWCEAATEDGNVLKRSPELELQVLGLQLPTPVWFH", "protocol": "(§1) The CH2 domain, which was modified in this examination, is known to be involved in interaction with several human Fcγ receptors (hereinafter denoted as hFcgRs) which affect effector functions. Therefore, the binding of TS1 and TS19 prepared by using the H chain of anti-IL6R produced in Example 2 to hFcgRs was measured, according to the method described in Reference Example 3.\n(§2) Interactions between antibodies and hFcgRs (hFcgRIa, hFcgRIIa(R), hFcgRIIa(H), hFcgRIIb, hFcgRIIIa(F), and hFcgRIIIa(V)) were analyzed using Biacore T100 (GE Healthcare). HBS-EP+(GE Healthcare) was used for the running buffer, and the measurement temperature was set at 25° C. Protein A (Invitrogen) was immobilized by the amino coupling method, and an antibody of interest was captured thereon. Then, hFcγR solutions diluted using the running buffer were injected to allow interaction with the captured antibody at a flow rate of 30 μL/min for five minutes for hFcγRIa, and at a flow rate of 5 μL/min for one minute for the other hFcγRs. […] Since the hFcγR binding level depends on the amount of captured antibodies, the FcgR-binding levels were corrected so that the capture level of each antibody would be 200 RU (resonance unit) for hFcgRIa and 1000 RU (resonance unit) for the other hFcgRs. The captured antibodies were washed by allowing 10 mM glycine-HCl (pH 1.5) to react for 30 seconds at a flow rate of 30 μL/min to recycle the chip for reuse."}, "[2]": {"biological_target": "T2, human Fcγ receptor hFcgRIIa (R) (human, UniProt P12318 36-217)", "T2 construct": "also called FcγRIIa (type R); FcγIIA", "T2 chain": "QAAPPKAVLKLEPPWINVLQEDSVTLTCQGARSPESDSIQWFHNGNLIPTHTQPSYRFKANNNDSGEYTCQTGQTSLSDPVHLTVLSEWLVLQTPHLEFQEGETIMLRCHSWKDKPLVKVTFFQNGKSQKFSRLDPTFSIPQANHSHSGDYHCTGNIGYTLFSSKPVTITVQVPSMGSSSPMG", "protocol": "as §1, §2"}, "[3]": {"biological_target": "T3, human Fcγ receptor hFcgRIIa (H) (human, UniProt P12318 36-217)", "T3 construct": "also called FcγRIIa (type H); FcγIIA", "T3 sequence": "T2 chain with R133H", "protocol": "as §1, §2"}, "[4]": {"biological_target": "T4, human Fcγ receptor hFcgRIIb (human, UniProt P31994 43-217, limits assumed)", "T4 construct": "Construct used in the SPR assay is not described; also called FcγRIIb; FcγIIB", "T4 sequence": "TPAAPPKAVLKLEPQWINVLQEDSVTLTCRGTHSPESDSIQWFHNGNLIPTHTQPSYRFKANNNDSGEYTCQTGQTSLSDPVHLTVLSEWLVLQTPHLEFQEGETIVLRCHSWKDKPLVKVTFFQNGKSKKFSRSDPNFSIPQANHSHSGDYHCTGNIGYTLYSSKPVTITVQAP", "protocol": "as §1, §2"}, "[5]": {"biological_target": "T5, human Fcγ receptor hFcgRIIIa (V) (human, UniProt P08637 17-208)", "T5 construct": "also called FcγRIIIa allotype V158; FcγIIIA", "T5 sequence (P08637 other isoform, or with tags, fused parts or gaps limits assumed)": "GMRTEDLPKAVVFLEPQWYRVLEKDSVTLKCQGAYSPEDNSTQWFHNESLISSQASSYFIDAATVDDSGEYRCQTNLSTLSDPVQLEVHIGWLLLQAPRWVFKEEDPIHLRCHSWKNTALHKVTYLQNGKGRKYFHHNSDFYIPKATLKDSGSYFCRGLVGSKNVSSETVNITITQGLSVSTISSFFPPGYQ", "protocol": "as §1, §2"}}, "note": "Positions count from the first letter of the chain named. Names and notes keep the numbering of the source."}
{"binder": "B1", "values": [{"measurement": "binding relative to G1 (=100)", "setting": "[1]", "result": 96.8}, {"measurement": "binding relative to G1 (=100)", "setting": "[2]", "result": 25.3}, {"measurement": "binding relative to G1 (=100)", "setting": "[3]", "result": 15.9}, {"measurement": "binding relative to G1 (=100)", "setting": "[4]", "result": 21.7}, {"measurement": "binding relative to G1 (=100)", "setting": "[5]", "result": 28.9}]}
